These results are taken from IntAct's records for PubMed 24469400.

B1: Syntaxin-4 (Rattus norvegicus (Rat)), Q08850 (parent)
chain: MRDRTHELRQGDNISDDEDEVRVALVVHSGAARLSSPDDEFFQKVQTIRQTMAKLESKVRELEKQQVTILATPLPEESMKQGLQNLREEIKQLGREVRAQLKAIEPQKEEADENYNSVNTRMKKTQHGVLSQQFVELINKCNSMQSEYREKNVERIRRQLKITNAGMVSDEELEQMLDSGQSEVFVSNILKDTQVTRQALNEISARHSEIQQLERSIRELHEIFTFLATEVEMQGEMINRIEKNILSSADYVERGQEHVKIALENQKKARKKKVMIAICVSVTVLILAVIIGITITVG

Variants of B1 are the subject of the experiment. The following applies: with vamp2_rat Vamp2, P63045.
Chain of vamp2_rat Vamp2, P63045 (P63045 whole entry): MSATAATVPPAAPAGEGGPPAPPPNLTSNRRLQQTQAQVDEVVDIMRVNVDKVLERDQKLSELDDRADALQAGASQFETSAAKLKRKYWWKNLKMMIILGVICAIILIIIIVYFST
With L173A;E174A, the “effect of a mutation on the interaction” value is given as “increasing interaction strength”.
